Results from patent publication US20130209454A1 (CALIFORNIA INSTITUTE OF TECHNOLOGY, published 2013).

Legend:
Experiment in all cases: cell-based or functional assay
[1] = molecular target: HIV-1 strain ZM53M.PB12 envelope (gp120) (HIV-1)
[2] = molecular target: HIV-1 strain 1054_07_TC4_1499 envelope (gp120) (HIV-1)
[3] = molecular target: HIV-1 strain Q461.e2 envelope (gp120) (HIV-1)
[4] = molecular target: HIV-1 strain SC422661.8 envelope (gp120) (HIV-1)
[5] = molecular target: HIV-1 strain Q769.d22 envelope (gp120) (HIV-1)
[6] = molecular target: HIV-1 strain Du422.1 envelope (gp120) (HIV-1)
[7] = molecular target: HIV-1 strain X1254_c3 envelope (gp120) (HIV-1)
[8] = molecular target: HIV-1 strain ZM247v1(Rev-) envelope (gp120) (HIV-1)
[9] = molecular target: HIV-1 strain C1080.c03 envelope (gp120) (HIV-1)
[10] = molecular target: HIV-1 strain 231966.c02 envelope (gp120) (HIV-1)
[11] = molecular target: HIV-1 strain 1006_11_C3_1601 envelope (gp120) (HIV-1)
[12] = molecular target: HIV-1 strain R2184.04 envelope (gp120) (HIV-1)
[13] = molecular target: HIV-1 strain ZM197M.PB7 envelope (gp120) (HIV-1)
[14] = molecular target: HIV-1 strain TRJO4551.58 envelope (gp120) (HIV-1)
[15] = molecular target: HIV-1 strain CNE17 envelope (gp120) (HIV-1)
[16] = molecular target: HIV-1 strain 620345.c01 envelope (gp120) (HIV-1)
[17] = molecular target: HIV-1 strain 3016.v5.c45 envelope (gp120) (HIV-1)
[18] = molecular target: HIV-1 strain 3301.v1.c24 envelope (gp120) (HIV-1)
[19] = molecular target: HIV-1 strain T257-31 envelope (gp120) (HIV-1)
[20] = molecular target: HIV-1 strain Ce2060_G9 envelope (gp120) (HIV-1)
[21] = molecular target: HIV-1 strain CNE53 envelope (gp120) (HIV-1)
[22] = molecular target: HIV-1 strain Ce703010054_2A2 envelope (gp120) (HIV-1)
[23] = molecular target: HIV-1 strain T255-34 envelope (gp120) (HIV-1)

B1: NIH45-46 IgG (antibody, V domains shown)
VH: QVRLSQSGGQMKKPGESMRLSCRASGYEFLNCPINWIRLAPGRRPEWMGWLKPRGGAVNYARKFQGRVTMTRDVYSDTAFLELRSLTSDDTAVYFCTRGKYCTARDYYNWDFEHWGRGAPVTVSS
VL: EIVLTQSPATLSLSPGETAIISCRTSQSGSLAWYQQRPGQAPRLVIYSGSTRAAGIPDRFSGSRWGADYNLSISNLESGDFGVYYCQQYEFFGQGTKVQVDI
[1]
  neutralization IC80: 0.61 µg/mL
[2]
  neutralization IC80: 0.404 µg/mL
[3]
  neutralization IC80: 0.291 µg/mL
[4]
  neutralization IC80: 0.13 µg/mL
[5]
  neutralization IC80: 0.033 µg/mL
[6]
  neutralization IC80: > 50 µg/mL
[7]
  neutralization IC80: 0.107 µg/mL
[8]
  neutralization IC80: 24.5 µg/mL
[9]
  neutralization IC80: 11.6 µg/mL
[10]
  neutralization IC80: 9.64 µg/mL
[11]
  neutralization IC80: 0.196 µg/mL
[12]
  neutralization IC80: 0.127 µg/mL
[13]
  neutralization IC80: 0.55 µg/mL
[14]
  neutralization IC80: 0.13 µg/mL
[15]
  neutralization IC80: 0.734 µg/mL
[16]
  neutralization IC80: > 50 µg/mL
[17]
  neutralization IC80: > 50 µg/mL
[18]
  neutralization IC80: 0.033 µg/mL
[19]
  neutralization IC80: 1.38 µg/mL
[20]
  neutralization IC80: 0.29 µg/mL
[21]
  neutralization IC80: 0.039 µg/mL
[22]
  neutralization IC80: 0.538 µg/mL
[23]
  neutralization IC80: 3.44 µg/mL
